These results are taken from patent US20080089931.

In this data set the target is EphA2 receptor tyrosine kinase (UniProt P29317).
Sequence of UniProt P29317 (P29317 whole entry, looked up): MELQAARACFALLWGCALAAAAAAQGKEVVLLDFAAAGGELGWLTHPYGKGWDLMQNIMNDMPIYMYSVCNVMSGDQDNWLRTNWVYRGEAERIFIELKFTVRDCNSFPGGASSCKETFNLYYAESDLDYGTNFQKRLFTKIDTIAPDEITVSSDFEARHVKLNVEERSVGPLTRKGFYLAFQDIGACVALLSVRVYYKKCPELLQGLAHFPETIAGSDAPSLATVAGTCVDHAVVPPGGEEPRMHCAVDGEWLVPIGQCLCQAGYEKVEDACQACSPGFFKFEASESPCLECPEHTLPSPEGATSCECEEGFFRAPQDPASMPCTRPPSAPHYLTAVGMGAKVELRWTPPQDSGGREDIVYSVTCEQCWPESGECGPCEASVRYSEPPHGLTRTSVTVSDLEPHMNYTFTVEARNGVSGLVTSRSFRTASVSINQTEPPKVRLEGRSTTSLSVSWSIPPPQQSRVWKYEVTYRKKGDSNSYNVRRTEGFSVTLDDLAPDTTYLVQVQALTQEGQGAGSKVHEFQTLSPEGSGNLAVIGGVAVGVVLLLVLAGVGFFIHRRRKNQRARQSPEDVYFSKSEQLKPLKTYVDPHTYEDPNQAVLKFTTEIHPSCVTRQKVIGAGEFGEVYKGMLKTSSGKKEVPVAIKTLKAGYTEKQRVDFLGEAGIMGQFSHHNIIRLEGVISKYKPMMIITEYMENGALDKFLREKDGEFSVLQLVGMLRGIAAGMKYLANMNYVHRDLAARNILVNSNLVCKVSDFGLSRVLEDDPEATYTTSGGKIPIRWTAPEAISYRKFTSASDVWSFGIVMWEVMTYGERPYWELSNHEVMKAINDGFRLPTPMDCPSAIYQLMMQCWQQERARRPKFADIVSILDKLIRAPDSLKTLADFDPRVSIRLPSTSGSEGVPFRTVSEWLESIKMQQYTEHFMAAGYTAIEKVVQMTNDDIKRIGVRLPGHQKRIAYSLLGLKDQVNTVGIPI

In the case of purified LMW-PTP protein, the “dephosphorylation of immunoprecipitated EphA2 (phosphotyrosine Western blot)” value is “the LMW-PTP dephosphorylated EphA2 in an enzyme concentration-dependent and a time-dependent manner”.
